Assay results from the DeepSol protein solubility set.

Test: soluble on expression in E. coli; label from the status in PepcDB or PDB records

| Sequence | soluble on expression in E. coli |
| --- | --- |
| MAHHHHHHMAYALVEADSISFSLKPADLCADSPLEYGSPREKETNGLSPCGDKGPLTPFGVRPHLFSKGWWRLVVLSSVPLDSYRAIPKDTWSFTEKGQLKQGSNALLFSYACTVSDRTDITLLLDVHSQRPIPFRIKIFRAGVEGPPVFVSEECVNHLFVPHVAVDVPEKVKNVAYIIEAWLDKEKVEEWERMRRLSQELKFLLAAEAARVKAEMKQQKELQEYHEDPRAFKERLLNQEMGPVENLVPTPLREQMSVSSKKGRPSVDKRRTLSNAAPSRQTIVRTSVTPSTPASAVAVHIDSIDPELVVTYDLRLYFSAKTDVKCVATGKDPLTTMRGLWVHQLILFLGKPLRSPVVAREGSVGSRRILLHLLKNYTRRII | not soluble |
| MDRPSRITRFFMGIVSWAERLNLKYAKLGNPPVYDNATFPWSAEIEKEWPAIRKELDKILLRQSKLPSFQDISTDVKTISTDNRWKTFFLLGFGVKSEQNIKACPETWRIVNKIPGLTTAMFSIFEPGKHLPPHRGPYNGVLRLHLGLIVPEPNDHWRSAWTARSATGTKARCLEHHHHHH | not soluble |
| MGSDKIHHHHHHMKTNIVDVFCIIDDFSKLFDETIKKKTLEEADKKCRNRKFKMSDSEVMTILILFHLSRYRDLKAFYLQYITHSCRSEFPHLVSYNRFVELQSRGGGKLIAFLNMCCLGQCTGISFIDSTPLKVCHIKRAHGHRTMRGWAQKGKSTMGWFYGFKLHIVINDRGEIINYQITPGNCDDREPLKDGTFTKNLFGKLIADRGYISQNLFDRLFVDDIHMITKIKKNMKNSLMHLYDKVLLRKRALIETVNDILKNLCRIEHTRHRSVNNFVTNLISGIIAYNILPKKPELNIEIIRNPNFPISA | not soluble |
| MAHHHHHHMVLIKAKNNEGKTVGEGKFSPFCFVLYGDIQYGMIRANHGWYEERKLLKEAITKTNKIKPSFVVAMGDLANKFPIDELQNEQYKDLKTDFEQLDKSIDLYVFCGNHDVGNEPTHETISNFEHFWGDSYYSYIYNNCGFIILNSAVFFNDTQVQDLKEKQFLWLDETLKKMVSKNVKHKFLFLHHALMYDHIEEDENIGLIYGDKFRNYSEKNKFHIKKETRMVIYDMLKKYKVSHVFCAHLHANREKNIDANIKQITISAVGMQAASDQSGLMIVQVAEEGVDYKYYPFEFVPSFVKV | not soluble |
| MSNVHPYTIFATMPHKSTAKDILIMSYDLSKRLVIGLASSALFDLSESDNIFRMEGAETYRQYQREKQNHPLKKALSFHLLKNFCQSMK | not soluble |
| MAHHHHHHMAYPYNAYLGYTQPPTQYGQPPVVAGAHGHLPVTTPLPYNAQSAYGGAQPP | not soluble |
| STSGTSVINDKVLQYETFISEVLRRDLQKVLEQRDAVYEKIAQYLQLKNTIQSIQGSGSKELKTDVDLGCNFYVQAHVPDASRIYVAVGYGFFVEFTHVEALKFIEKKTNQLTEYTEVLTKDAAKIKANIRMVLEGLRELQGLKDLPEDRRREVF | soluble |
| MGSDKIHHHHHHMPETLNLNYYYGNEADQYSFYRIPKTLLTDRRYKGVSLEAKVLYGLLLDRMGLSARNGWLDNNGRVFLYFTQEEAMTMLGCGKDKVTKLFRELEGIGLMERKKQGQGHPARIYVKNFILEPEPTAPVQTAENQQSRPLPSAAVKTAEKPQSAPRKTSGQECGISAPNNTDINKTEKSDTDLSILPPTPSAVSSPAGKRAPRRMGLDEMESYRELIMENIDYDILLERYPYEKDLLDGYVELMLEVCCSTRESVRICGQEVPTEVIKSRFLKLNSEHIGYVMDSLKSNTAKIGNIKAYTLAALYNAPVTMGQYYTSLVSHDMAHGLLSG | not soluble |
| LITPQYKSEAKLYILSKETTLTSLADLQIGSQLTQDYKVLVSSRPVMEGVINHLKLDYSYKELAGKLTVENPQNTRILSLTVRDENPYMAKQIVDDIANTASDYIGEIMEMVPPKMIEDGVVASEPYSPSIKRN | not soluble |
| MKSLRFQSVFDIIGPVMIGPSSSHTAGAVRIGKIVSSIFDDTPTEVEFQLFNSFAKTYRGHGTDLALVAGILGMDTDDPEIPNSLEIAHKRGIKIVWTIQKDSNAPHPNTTKITVKNAHKTISVTGISIGGGNIQVTELNGF | not soluble |
| MGSDKIHHHHHHMDNKEKEDEELSDELKDQPGPSEKPRTPTVVAFTKPSFYRVNTVISDVKVCRSMSYDMCGNHQQELLFDLYKDETTGKVYLPRFFKALLESGIRKDDPRIDKMIQNIKDADLLDDFVWGTQHIYLEKDTFKRYIGSSIGVVTKALKKQMIIPDWERFVSDMGEIFEDVRSHNEGDLATYIPQLSRVAPDSWAMSVCTIDGQRKMWGDALKPFCLQSVSKPFTYALVHDDIGPEELHAHVGQEPSGRLFNDISLDHNKKPHNPLINAGAIVVASLLKNKLPLADRFDFMIHACRKFVGSGYIGFDNSVFLSERETADRNYALSYYMREHKVFPKDLNLQDTLDLYFQICSIETNCDSLAVMAATLANGGVNPMNGERIVNNRACRDTLSLMYSCGMYDWSGQFAFHVGLPAKSGVSGDMIIVIPNVMGIALYSPRLDKLGNTVRGVKFAEQLVQKYNFHNYDSLIYSDNKKIDPRRQLKDDHDGQNRFMYATKLGDIAAIKRFLLMGHDIHCKDYDDRTVLHVAAAEGDVVTLEYVLSKWQEDPNPCDRYDRTPLDDAKHFNHTACVKLLEEAITVYNLKGQDD | not soluble |
| MNTKKFAKVNEQIPGPKAASLLERRQNIVPKGVSNGIPTFVQSANGALVTDVDGNQYIDFAGAIGTINVGHCHPAVKEALHKQVDQYIHTGFNVMMYEPYIELAEKLAALAPGSFDKQVLFLNSGAEAVENAVKIARKYTKRPGIIAFSKGFHGRTLMTMTMTSKVKPYKFGFGPFAPEVYKAPFPYEYRCPEGLTEEQYDDFMIEEFKNFFISEVAPETIAAVVMEPVQGEGGFIVPSKKFAQEVRNICSEHGILFVADEIQTGFSRTGKYFAIDHYDVVPDLITVSKSLGAGVPISGVIGRKEIMNESAPGELGGTYAGSPLGCAAALAVLDVIEKENLNDRAIELGKVVMNRFEEMKNKYNCIGDVRGLGAMCAFELVQDRKTKTPDKTLTANLCTEANKRGLLLLSAGTYGNVIRVLMPLVITDEQLEEGLTIIEESLQICYEKANTARV | not soluble |
| AIAHGVEFAPLERQHGSQVLALLRGTLLVPLPRLHQRLEEAYERDARLGLAQVALCRLAGNAEKVVGVLLARVATRRTCCAQVYIDAVAVDAVFQGQGIGSRLLLRVLTPCLPDGLEVREVFLHTPLQATELVAFYRSCGFESDDEVIDNYYPRRWMPQAQALVLRWRPPTAAQHQHEERKGPQDADVS | soluble |
| MAKNPKDGESRTFLISVAAELAGMHAQTLRTYDRLGLVSPRRTSGGGRRYSLHDVELLRQVQHLSQDEGVNLAGIKRIIELTSQVEALQSRLQEMAEELAVLRANQRREVAVVPKSTALVVWKPRR | soluble |
| MAKLDETLTMLKALTDAKGVPGNEREARDVMKTYIAPYADEVTTDGLGSLIAKKEGKSGGPKVMIAGHLDEVGFMVTQIDDKGFIRFQTLGGWWSQVMLAQRVTIVTKKGDITGVIGSKPPHILPSEARKKPVEIKDMFIDIGATSREEAMEWGVRPGDMIVPYFEFTVLNNEKMLLAKAWDNRIGCAVAIDVLKQLKGVDHPNTVYGVGTVQEEVGLRGARTAAQFIQPDIAFAVDVGIAGDTPGVSEKEAMGKLGAGPHIVLYDATMVSHRGLREFVIEVAEELNIPHHFDAMPGVGTDAGAIHLTGIGVPSLTIAIPTRYIHSHAAILHRDDYENTVKLLVEVIKRLDADKVKQLTFDE | not soluble |
| AHHHHHHGSKKFRFFVSGMPGVGKTTLAKRIADEIKREGFKVGGIITQEIRSGARRSGFRVIALDTGEIGRLAYVGQGYPRLGRYVIDVESFEKVAIPAISRALREGDLIVIDEIGPMEFKSNEFLKALGLVLRSEKPLLATVHRRFVERYRPLGEYYWLTPENREAVFSEILVKIKELLRENENAGNKAQD | not soluble |
| GDSTILKVLQSNIQHVQLYENPVLQEKALTCIPVSELKRKAQEKLFRARKLDKGTNVSDEDFLLLELLHWFKEEFFRWVNNIVCSKCGGETRSRDEALLPNDDELKWGAKNVENHYCDACQLSNRFPRYNNPEKLLETRCGRCGEWANCFTLCCRALGFEARYVWDYTDHVWTEVYSPSQQRWLHCDACEDVCDKPLLYEIGWGKKLSYIIAFSKDEVVDVTWRYSCKHDEVMSRRTKVKEELLRETINGLNKQRQLSLSESRRKELLQRIIVELVEFISPKTPRPGLEHHHHHH | soluble |
| MGFTLKSLEFLQGVEPFRIDENHENEGASEEEEVLISAETDAGMSLMLEWKMRLSEDSDQCTTCNCPVDFGDRAVLLEHYQSLFHRTNTLRKARNMTVYTEEDFEGIENSENDLTSSQTTIGLESDDEEFDALLLPANRSFFIKNGSVFSVPRNILHVGERDVSSVTFLRPFDCAIFLWNGGHFAAAMFENDKMTVQKSFHRYVARAKQGGVQSQHDSGGKGAAKSAGAQLRRYNEQKMKEEIQSIMSSWKSRLQKTPLLFIRCAAYHRNIFFEADAGIETRDDRIRTIPFETKRPNIDEISDCWQRLQQVSEHGAESDFRAEMLEVREKRKKLARKVAGKKRKDGGMQMICEWSDDDENEDISKEKKTHHIKVRTIKKPEETVVQWPRLDDEWRQKTYNYVRQDSVEALKEHLASLNEDVTSEANDYLRNAKIPPNRSTFLHVSAANDARKCLKYFLEEVNCDSSTKDGAGLPPYSSSANSDVKSIFIDYRVKNETAGNWARTHIPEPKKKVELTEEQEREQAERKKEKKARQKEKEKLKKEIAKRDVEEMEERQKYVNMSEREKRALAVDRRLAGLPPILRCHQCGVQLPPTPFQYSHYNFCSTSCVAEHRKANPQ | not soluble |
| MGSDKIHHHHHHMNEREICERIAEILNLEHDCSKGIDDLLKILEYEINEYRKSLEEQAMFMEAQIEELSRSYEEISTLLEISEIFGTFEFPLNLQDKLEKVIRLLRNVIKFESYLVHLESELTVGDLNREEIEPEIGNPEKTVLIEPGKSEKFSNLLFVPIKGNKYYGYVCFVGKEDGGVFTAGDRKIAEMTARYIASALDRLDFLKKEIERERLEEQLNIARQIQTNLLPRKIPEIGFVEADACSQPAVQVGGDYYDFFVSQEKRFLTVVGDVAGKSVPAALLMSAVRSYLKVLVTTCPDLEKLVNRLNTILCEDMTNDRFVTMAFIEISPDGTLNLINAGHNPVYFLHKGELVKIEASAIPIGITEWEYKKHTIHLKPDTFVISYSDGLTEARNEAGEEFGYERLEKILREFKGETPAELLEALRKRVKSFMGDAQQHDDMTIVVLKYKGQQEVE | not soluble |
| MNAYQKTIGRAVTLSGVGIHGGAPASARLLPADADTGILFQRSDIKDSAPVCAHVSQIGATDLCTSLGAREARIDTVEHLMAAISALGIDNLVVEIEGPEVPILDGTSARFIEAVDSVGVVTQDAKRRFIRILKTVRVEAGNSWGEFRPYDGTRFEVEIDFECPLIGRQKFAHDVDEETFRKELSTARTFGFMKDVERLWAAGLALGASLDNSLVIGDDNSIVNADGLRFKDEFVRHKTLDAVGDLALAGLPFIGCFSSYRGGHRLNSEAVKALLSDETAFEIIEALEHHHHHH | soluble |
| SAFQKAASLLGAPIGHDFCVISLSDLMTPWDRIEKRIHAAATADFVTAVYNPKSEGRYWQLYRLKEIFLKERDPETPVGFVRQAGRKEETVTITTLQEFDPEQVDMFTVVLIGNSQSYHQEG | soluble |
| STRFPGVAIYLVEPRMGRSRRAFLTGLARSKGFRVLDACSSEATHVVMEETSAEEAVSWQERRMAAAPPGCTPPALLDISWLTESLGAGQPVPVECRHRLEVAGPRKGPLSPAWMPAYAC | soluble |
